Assay results from patent EP4644423A1 (Biyopharma Co., Ltd, dated 2025).

Experiments:
RC-Fc [1] = target: T1, RC-Fc (human); test: ELISA, RC-Fc coated, VHH-His titrated, anti-His-HRP; Exp2
T1 construct: Knob-in-hole heterodimer of the R chain and the C chain, human IgG1 Fc; expressed in 293 cells, purified on Protein A; also called RC-Fc fusion protein; reconstructed CGRP receptor extracellular region

RC-Fc [2] = target: T1, RC-Fc; test: ELISA, RC-Fc coated, VHH-His titrated, anti-His-HRP; Exp1
RC-Fc [3] = target: T1, RC-Fc; test: ELISA, RC-Fc coated, VHH-His titrated, anti-His-HRP; Exp3
RC-Fc [4] = target: T1, RC-Fc; test: ELISA, RC-Fc coated, VHH-His titrated, anti-His-HRP; average of Exp1-3
[5] = target: CGRP receptor on SK-N-MC cells (UniProt O60894 27-148; Q16602 23-461, limits assumed); test: cell-based or functional assay
[6] = target: T2, pituitary adenylate cyclase-activating polypeptide (PACAP) (UniProt P18509 132-169, not fully specified; biotin label in the ELISA of Example 3 (Biotin-PACAP; position not stated); unlabelled in the cAMP assay); test: ELISA, Biotin-PACAP on streptavidin plate, Fc fusion titrated, anti-human IgG-HRP
T2 construct: also called PACAP38; Biotin-PACAP
T2 peptide (looked up): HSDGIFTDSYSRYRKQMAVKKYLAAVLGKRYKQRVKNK

Sequence of CGRP receptor on SK-N-MC cells (O60894 27-148 limits assumed, chain 1 of 2): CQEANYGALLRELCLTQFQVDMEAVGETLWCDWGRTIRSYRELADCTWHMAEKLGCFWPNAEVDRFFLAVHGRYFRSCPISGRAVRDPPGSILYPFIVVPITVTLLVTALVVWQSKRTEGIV
Sequence of CGRP receptor on SK-N-MC cells (Q16602 23-461 limits assumed, chain 2 of 2): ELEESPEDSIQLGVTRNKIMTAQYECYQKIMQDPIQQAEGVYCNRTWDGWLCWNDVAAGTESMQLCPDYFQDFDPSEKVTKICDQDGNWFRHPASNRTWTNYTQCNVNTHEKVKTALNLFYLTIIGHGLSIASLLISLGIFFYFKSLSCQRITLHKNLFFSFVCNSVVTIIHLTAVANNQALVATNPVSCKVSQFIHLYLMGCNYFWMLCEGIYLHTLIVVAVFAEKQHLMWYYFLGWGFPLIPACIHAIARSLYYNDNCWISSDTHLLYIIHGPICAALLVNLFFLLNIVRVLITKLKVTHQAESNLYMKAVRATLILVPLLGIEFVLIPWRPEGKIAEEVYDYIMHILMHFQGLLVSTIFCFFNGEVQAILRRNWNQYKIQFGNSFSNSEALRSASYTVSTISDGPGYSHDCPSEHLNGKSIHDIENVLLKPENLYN
T1 sequence (chain, as listed by the source limits assumed, chain 1 of 2): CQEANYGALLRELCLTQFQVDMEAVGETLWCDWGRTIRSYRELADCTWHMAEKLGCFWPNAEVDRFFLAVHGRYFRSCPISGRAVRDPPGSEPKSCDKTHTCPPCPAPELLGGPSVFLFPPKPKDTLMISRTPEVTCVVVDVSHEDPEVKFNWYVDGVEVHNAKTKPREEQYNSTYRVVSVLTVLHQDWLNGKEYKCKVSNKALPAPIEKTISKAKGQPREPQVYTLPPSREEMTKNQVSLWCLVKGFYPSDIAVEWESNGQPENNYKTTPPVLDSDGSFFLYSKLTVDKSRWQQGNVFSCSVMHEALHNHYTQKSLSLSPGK
T1 sequence (chain, as listed by the source limits assumed, chain 2 of 2): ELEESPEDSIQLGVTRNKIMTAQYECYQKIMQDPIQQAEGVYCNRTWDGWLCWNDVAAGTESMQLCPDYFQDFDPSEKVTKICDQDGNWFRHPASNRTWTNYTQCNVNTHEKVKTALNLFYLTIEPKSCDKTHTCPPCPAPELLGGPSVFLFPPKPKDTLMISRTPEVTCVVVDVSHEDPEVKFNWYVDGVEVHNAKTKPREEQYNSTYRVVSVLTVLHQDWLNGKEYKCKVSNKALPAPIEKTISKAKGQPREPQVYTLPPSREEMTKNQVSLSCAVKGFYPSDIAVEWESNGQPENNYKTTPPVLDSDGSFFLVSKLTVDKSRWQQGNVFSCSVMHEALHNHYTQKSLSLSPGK

Binder | EC50 (RC-Fc [1]) | EC50 (RC-Fc [2]) | EC50 (RC-Fc [3]) | EC50 (RC-Fc [4]) | IC50 (nM), inhibition of CGRP-induced (5 nM) cAMP production in SK-N-MC cells [5] | fold binding ability against PAC1 ECD-Fc [6] | binding result (RC-Fc [2])
A10-268-5 (VHH, Llama VHH with C-terminal 6xHis, expressed in 293 cells; also called B828601) VHH: QVQLVESGGGLVQAGGSLRLSCAVSGRTVTTITMGWFRQAPGKEREFVASISWDGLSTGYQDSVKGRFTISRDNAKNTVYLQMNSLKPEDTAVYYCAAGDSLWSWSKVPANYAYWGQGTQVTVSS | 0.184 nM | 0.143 nM | 0.08 nM | 0.136 nM | > 10000 nM | – | –
A10-268-18 (VHH) VHH: QVQLVESGGGQVQAGGSLRLSCAASGRISSSYDMGWLRQAPGKEREFVARITWSGGSTYYADSVKGRFTISRDSTKKTVYLQMNSLKPEDTAVYYCAANRAFTGQYDYWGQGTQVTVSS | – | – | – | – | 492 nM | – | –
A10-268-42 (VHH, Llama VHH with C-terminal 6xHis, expressed in 293 cells; also called B828603; 42wt) VHH: QVQLVESGGGLVQAGDSLRLSCAASGRTFSGYVMGWFRQAPGKEREFVAALRWSSSNTNYAASVKGRFTISRDYAKDTVYLQMNSLKPDDTAVYYCAAKRDRPYGSTWTPVAADYDTWGQGTQVTVSS | 0.15 nM | 0.025 nM | 0.021 nM | 0.065 nM | 39.7 nM | – | –
A10-268-273 (VHH) VHH: EVQLVESGGGLVQPGDSLTLSCAASGRAKNRYVMGWFRQAPGKEREFVAALRWSSSNTNYAASVKGRFTISRDYAKDTVYLQMNSLKPDDTAVYYCAAKRDRPYGSTWTPVAADYDTWGQGTQVTVSA | – | – | – | – | 23.6 nM | – | –
A10-268-76 (VHH, Llama VHH with C-terminal 6xHis, expressed in 293 cells; also called B828604) VHH: QVQLVESGGGLVPAGGSLNLSCAASGRTFSTYAMGWFRQAPGKEREFVATINWDNGRTYYADSVKGRFTISRDNAKNMVYLQMNSLKPEDTAVYYCAADKTAIFRTSVVPDDYDYWGQGTQVTVSS | 0.144 nM | 0.024 nM | 0.028 nM | 0.065 nM | > 10000 nM | – | –
A10-268-103 (VHH, Llama VHH with C-terminal 6xHis, expressed in 293 cells; also called B828605) VHH: QVQLVESGGGLVQAGGSLRLSCVASGRTFSSYAMGWFRQAPGKEREFVSGITESGATTRYADSMRGRFIISRDNAQNTVYLEMNSLKPEDSAVYYCAASRFGITVPTAKGAYNYWGQGTQVTVSS | 0.114 nM | 0.372 nM | 0.265 nM | 0.25 nM | 279 nM | – | –
A10-269-165 (VHH, Llama VHH with C-terminal 6xHis, expressed in 293 cells; also called N220505103) VHH: QVQLVESGGGLVQAGGSLRLSCAASRTWFSIGAMGWYRQAPGKQRELVATITSGSSTTYADAVKGRFTVSRDNAENTVYLQMNSLKPEDTAVYYCYTKSRRKPWDLENDYWGQGTQVTVSS | 0.057 nM | 0.097 nM | 0.48 nM | 0.211 nM | – | – | –
A10-269-172 (VHH, Llama VHH with C-terminal 6xHis, expressed in 293 cells; also called N220505104) VHH: EVQVVESGGGLVQAGGSLRLSCVSSESSFSINTMRWYRQAPGKERELVASINSASSTYYGDAVKGRFTISRVNAKNTVYLQMNSLKPEDTAVYFCNTHSVLASRDYWGQGTQVTVSS | 0.051 nM | 0.056 nM | 0.042 nM | 0.05 nM | – | – | –
A10-269-238 (VHH, Llama VHH with C-terminal 6xHis, expressed in 293 cells; also called N220505106) VHH: QVQLVESGGGLVQPGGSLRLSCAASGFTFGNYDMSWVRQAPGKGPEWVSGIAPAGTITRYADSVKGRFTISRDNAKNTLYLQMNSLKPEDTAVYRCAKGASWGQGTQVTVSS | 0.073 nM | 0.091 nM | 0.081 nM | 0.082 nM | – | – | –
A10-269-385 (VHH, Llama VHH with C-terminal 6xHis, expressed in 293 cells; also called N220505107) VHH: EVQLVESGGGLVQAGGSLRVSCQASEISFSFHAMGWYRQAPGKQRELVARITSIGRTTYADFVKGRFTISRGNAKNTVYLQMNSLKPEDTAVYYCNAEPGRVNYEYWGQGTQVTVSS | 0.073 nM | 0.052 nM | 0.061 nM | 0.062 nM | – | – | –
PAC1s ECD-Fc (Fc fusion, C-terminus of PAC1s ECD fused to the N-terminus of Fc; also called PACs1 ECD-Fc; PACls ECD-Fc; not shown: Fc fused to the C-terminus of the ECD) MHSDCIFKKEQAMCLEKIQRANELMGFNDSSPGCPGMWDNITCWKPAHVGEMVLVSCPELFRIFNPDQDMGVVSRNCTEDGWSEPFPHYFDACGFDEYESETGDQDYYYLSVKA | – | – | – | – | – | 40 times that of PAC1 ECD-Fc | –
A10-269-56 (VHH, Llama VHH with C-terminal 6xHis, expressed in 293 cells; also called N220505101) VHH: EVQLVESGGGLVQAGGSLRLSCAASGSTFSGRYMGWFRQGQGKEREFVAASMWSGTAISYADSVKGRFTISRDNAKATMYLQMSSLKDEDTAVYYCAAGGLWNLKLSDAGYYEYWGQGTQVTVSS | – | – | – | – | – | – | no binding
